Biological target: human serum albumin (HSA) (human), P02768
Experiment: FP
Details: modification not given

AEGTGDFWFCDRIAWYAQHLCEFLDPEGGGK [DX-236 Ala mutant 120]
Kd: 1300 nM

AEGTGDAWFCDRIAWYPQHLCEFLDPEGGGK [DX-236 Ala mutant 128]
Kd: 5100 nM

AEGTGDFWFCDAIAWYPQHLCEFLDPEGGGK [DX-236 Ala mutant 124]
Kd: 1500 nM

AEGTGDFWFCDRIAWAPQHLCEFLDPEGGGK [DX-236 Ala mutant 121]
Kd: 1400 nM

AEGTGAFWFCDRIAWYPQHLCEFLDPEGGGK [DX-236 Ala mutant 129]
Kd: 5100 nM

AEGTGDFAFCDRIAWYPQHLCEFLDPEGGGK [DX-236 Ala mutant 127]
Kd: 2300 nM

AEGTGDFWFCDRIAWYPAHLCEFLDPEGGGK [DX-236 Ala mutant 119]
Kd: 2200 nM

AEGTGDFWFCARIAWYPQHLCEFLDPEGGGK [DX-236 Ala mutant 125]
Kd: 5000 nM

AEGTGDFWFCDRIAAYPQHLCEFLDPEGGGK [DX-236 Ala mutant 122]
Kd: 1400 nM

AEGTGDFWFCDRIAWYPQHACEFLDPEGGGK [DX-236 Ala mutant 117]
Kd: 2000 nM

Reference: patent US7211395
